Test system: O=c1ccn([C@@H]2O[C@H](COP(=O)(O)OP(=O)(O)OP(=O)(O)O)[C@@H](O)[C@H]2O)c(=O)[nH]1
Test: purified protein
Conditions: 20 mM Tris-HCl pH 8.0, 5 mM DTT, 10 mM MgCl2, 28°C, 16 nM enzyme, no RNA

In the case of ALSV NS3-Hel (Alongshan virus), the Km is reported as 185 ± 19 µM and the kcat is reported as 0.85 ± 0.02 s⁻¹.

Reference: article PMC7201283, “Crystal structure of the NS3-like helicase from Alongshan virus” (IUCrJ, 2020)
